94 variants from the supplement of paper PMC10567573 can be followed below.

B1: DYRK1B (parent)
chain: YQGPGTRRLQEVLGVQTGGPGGRR
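Note: lentivirally expressed fusions sorted by FACS into six bins by GFP to DsRed ratio, PSI derived from sequencing read proportions per bin multiplied by bin number.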

The data set covers variants of B1. Put plainly: protein stability index of a GFP-peptide fusion (GPS, HEK-293T) (PSI 1-6); higher = more stable. The conditions noted are these: c terminus: a fixed tail appended.
Turning to YQGPGTRRLQEVLGVHTGGPGGRR, the protein stability index was 3.75.

Turning to YQGPGTRRLQEVLGVNTGGPGGRR, the protein stability index worked out at 3.32.

For the variant YQGPGTRRLQEVLGVETGGPGGRR, the protein stability index amounted to 3.39.

Regarding YQGPGTRRLQEVLGVSTGGPGGRR, the protein stability index turned out to be 2.82.

With YQGPGTRRLQEVLGVDTGGPGGRR, the protein stability index came out at 4.06.

Turning to YQGPGTRRLQEVLGVGTGGPGGRR, the protein stability index worked out at 3.42.

Regarding YQGPGTRRLQEVLGVWTGGPGGRR, the protein stability index amounted to 2.26.

With YQGPGTRRLQEVLGVYTGGPGGRR, the protein stability index was 3.19.

In the case of YQGPGTRRVQEVLGVQTGGPGGRR, the protein stability index was 3.75.

Take YQGPGTRRPQEVLGVQTGGPGGRR: the protein stability index turned out to be 4.

Take YQGPGTRREQEVLGVQTGGPGGRR: the protein stability index was determined as 3.79.

For YQGPGTRRSQEVLGVQTGGPGGRR, the protein stability index worked out at 4.65.

Regarding YQGPGTRRAQEVLGVQTGGPGGRR, the protein stability index came to 4.03.

Consider YQGPGTRRMQEVLGVQTGGPGGRR, for which the protein stability index is 3.71.

As for YQGPGTRRKQEVLGVQTGGPGGRR, the protein stability index stood at 4.06.

Regarding YQGPGTRRGQEVLGVQTGGPGGRR, the protein stability index came out at 4.47.

As to YQGPGTRRCQEVLGVQTGGPGGRR, the protein stability index was 3.21.

In the case of YQGPGTRRQQEVLGVQTGGPGGRR, the protein stability index is 4.31.

Consider YQRPGTRRLQEVLGVQTGGPGGRR, for which the protein stability index is 2.25.

Turning to YQFPGTRRLQEVLGVQTGGPGGRR, the protein stability index stood at 2.77.

With YQPPGTRRLQEVLGVQTGGPGGRR, the protein stability index was 3.39.

On to YQLPGTRRLQEVLGVQTGGPGGRR, for which the protein stability index amounted to 3.23.

As to YQNPGTRRLQEVLGVQTGGPGGRR, the protein stability index is 3.71.

Take YQSPGTRRLQEVLGVQTGGPGGRR: the protein stability index was 3.44.

On to YQWPGTRRLQEVLGVQTGGPGGRR, for which the protein stability index was found to be 3.1.

In the case of YQEPGTRRLQEVLGVQTGGPGGRR, the protein stability index was 4.32.

Turning to YQGPGTRRLQEVLGVQQGGPGGRR, the protein stability index was 3.47.

YQGPGTRRLQEVLGVQEGGPGGRR: the protein stability index was determined as 3.44.

Turning to YQGPGTRRLQEVLGVQSGGPGGRR, the protein stability index is 2.77.

YQGPGTRRLQEVLGVQYGGPGGRR: the protein stability index turned out to be 3.11.

For the variant YQGPGTRRLQEVLGVQNGGPGGRR, the protein stability index turned out to be 3.83.

For YQGPGTRRLQEVLGVQCGGPGGRR, the protein stability index worked out at 2.95.

Regarding YQGPGTRRLQEVLGVQFGGPGGRR, the protein stability index came out at 2.85.

On to YQGPGTRRLQEVLGVQKGGPGGRR, for which the protein stability index amounted to 3.24.

Consider YQGPGTRRLQEVLGVQWGGPGGRR, for which the protein stability index turned out to be 2.49.

Take YQGPGTRRLQEVLGVQHGGPGGRR: the protein stability index turned out to be 3.69.

Take YQGPGTRRLQEVGGVQTGGPGGRR: the protein stability index came to 3.9.

Consider YQGPGTRRLQEVSGVQTGGPGGRR, for which the protein stability index came to 4.07.

As for YQGPGTRRLQEVKGVQTGGPGGRR, the protein stability index stood at 3.79.

In the case of YQGPGTRRLQEVVGVQTGGPGGRR, the protein stability index is 3.68.

Consider YQGPGTRRLQEVMGVQTGGPGGRR, for which the protein stability index was determined as 3.31.

For YQGPGTRRLQEVYGVQTGGPGGRR, the protein stability index is 3.63.

In the case of YQGPGTRRLQEVFGVQTGGPGGRR, the protein stability index stood at 2.9.

In the case of YQGPGTRRLQEVAGVQTGGPGGRR, the protein stability index was 3.58.

For YQGPGTRRLQEVRGVQTGGPGGRR, the protein stability index worked out at 3.61.

Regarding YQGPGTRRLQEVQGVQTGGPGGRR, the protein stability index came out at 3.89.

With YQGPGTRRLQEVTGVQTGGPGGRR, the protein stability index was found to be 3.97.

For YQGPGTRRLQEVCGVQTGGPGGRR, the protein stability index was 3.88.

In the case of YQGPGTRRLQEVWGVQTGGPGGRR, the protein stability index came out at 1.67.

Turning to YQGPGTRRLQEVIGVQTGGPGGRR, the protein stability index was determined as 3.47.

Take YQGPGTCRLQEVLGVQTGGPGGRR: the protein stability index worked out at 1.51.

In the case of YQGPGTHRLQEVLGVQTGGPGGRR, the protein stability index was found to be 3.42.

Consider YQGPGTNRLQEVLGVQTGGPGGRR, for which the protein stability index came out at 2.65.

Turning to YQGPGTARLQEVLGVQTGGPGGRR, the protein stability index is 3.68.

Turning to YQGPGTWRLQEVLGVQTGGPGGRR, the protein stability index worked out at 1.77.

Take YQGPGTSRLQEVLGVQTGGPGGRR: the protein stability index was 3.45.

On to YQGPGTRRLQEVLGVQTGGPGGRA, for which the protein stability index worked out at 3.23.

As to YQGPGTRRLQEVLGVQTGGPGGRV, the protein stability index came out at 3.54.

In the case of YQGPGTRRLQEVLGVQTGGPGGRY, the protein stability index worked out at 3.24.

Consider YQGPGTRRLQEVLGVQTGGPGGRP, for which the protein stability index amounted to 3.45.

Turning to YQGPGTRRLQEVLGVQTGGPGGRE, the protein stability index is 3.67.

As for YQGPGTRRLQEVLGVQTGGPGGRH, the protein stability index was 3.17.

As to YQGPGTRRLQEVLGVQTGGPGGRM, the protein stability index was 2.5.

On to YQGPGTRRLQEVLGVQTGGPGGRL, for which the protein stability index is 2.87.

On to YQGPGTRRLQEVLGVQTGGPGGRG, for which the protein stability index came out at 3.4.

As to QQGPGTRRLQEVLGVQTGGPGGRR, the protein stability index came out at 4.04.

For PQGPGTRRLQEVLGVQTGGPGGRR, the protein stability index stood at 5.36.

Consider FQGPGTRRLQEVLGVQTGGPGGRR, for which the protein stability index is 3.84.

As to NQGPGTRRLQEVLGVQTGGPGGRR, the protein stability index was found to be 4.63.

As to VQGPGTRRLQEVLGVQTGGPGGRR, the protein stability index was found to be 4.28.

For the variant YQGPGTRALQEVLGVQTGGPGGRR, the protein stability index is 3.24.

Turning to YQGPGTRGLQEVLGVQTGGPGGRR, the protein stability index amounted to 3.14.

For the variant YQGPGTRPLQEVLGVQTGGPGGRR, the protein stability index was found to be 3.49.

Consider YQGPGTRCLQEVLGVQTGGPGGRR, for which the protein stability index is 2.21.

As for YQGPGTRYLQEVLGVQTGGPGGRR, the protein stability index was found to be 1.91.

As for YQGPGTRRLREVLGVQTGGPGGRR, the protein stability index was found to be 2.91.

Turning to YQGPGTRRLCEVLGVQTGGPGGRR, the protein stability index turned out to be 2.72.

For the variant YQGPGTRRLDEVLGVQTGGPGGRR, the protein stability index stood at 3.3.

With YQGPGTRRLFEVLGVQTGGPGGRR, the protein stability index amounted to 2.34.

As for YQGPGTRRLVEVLGVQTGGPGGRR, the protein stability index came to 2.52.

As for YQGPGTRRLHEVLGVQTGGPGGRR, the protein stability index was 2.98.

YQGPGTRRLIEVLGVQTGGPGGRR: the protein stability index is 2.66.

For the variant YHGPGTRRLQEVLGVQTGGPGGRR, the protein stability index was found to be 2.26.

For the variant YYGPGTRRLQEVLGVQTGGPGGRR, the protein stability index worked out at 3.7.

For the variant YEGPGTRRLQEVLGVQTGGPGGRR, the protein stability index stood at 4.23.

Take YDGPGTRRLQEVLGVQTGGPGGRR: the protein stability index was 4.23.

Turning to YFGPGTRRLQEVLGVQTGGPGGRR, the protein stability index was 3.22.

Turning to YQGPGTRRLQEVLGVQTGMPGGRR, the protein stability index was 2.75.

Take YQGPGTRRLQEVLGVQTGQPGGRR: the protein stability index was 3.05.

On to YQGPGTRRLQEVLGVQTGDPGGRR, for which the protein stability index was 3.58.

On to YQGPGTRRLQEVLGVQTGNPGGRR, for which the protein stability index came out at 3.05.

For the variant YQGPGTRRLQEVLGVQTGVPGGRR, the protein stability index amounted to 3.19.

On to YQGPGTRRLQEVLGVQTGWPGGRR, for which the protein stability index was determined as 2.14.

With YQGPGTRRLQEVLGVQTGAPGGRR, the protein stability index was 3.34.
